Laboratory results from US20150239961A1.

Assays:
[1] = biological target: recombinant AE.A244 Δ11 gp120 (HIV-1 AE.A244); experiment: SPR synergy assay (BIAcore 4000), CH58 immobilized on CM5 chip, mAb-gp120 complex injected
[2] = biological target: Env on the surface of HIV-1 AE.CM235-infected cells (HIV-1 AE.CM235); experiment: flow cytometry, Alexa Fluor 488-CH58 with CH90 F(ab), HIV-1-infected CD4+ T cells (FIG. 14B-E)
[3] = biological target: Env on the surface of HIV-1 AE.92TH023-infected primary CD4+ T cells (HIV-1 AE.92TH023); experiment: as above
[4] = biological target: recombinant AE.A244 Δ11 gp120 (HIV-1 AE.A244); experiment: SPR (BIAcore 3000), mAb captured by anti-human Ig Fc, gp120 in flow
[5] = biological target: Env on the surface of HIV-1 AE.CM235-infected cells (HIV-1 AE.CM235); experiment: cell-based or functional assay
[6] = biological target: Env on the surface of HIV-1 AE.CM235-infected cells (HIV-1 AE.CM235); experiment: flow cytometry, Alexa Fluor 488-CH58 with unconjugated mAb, 10 µg/ml each, AE.CM235-infected CD4+ T cells
[7] = biological target: Env on the surface of HIV-1 AE.92TH023-infected primary CD4+ T cells (HIV-1 AE.92TH023); experiment: flow cytometry, Alexa Fluor 488-CH58 with unconjugated mAb, 10 µg/ml each, AE.92TH023-infected CD4+ T cells
[8] = biological target: HIV-1 B.JRFL gp120 Env (HIV-1 B.JRFL); experiment: blocking assay on JRFL gp120, competitor b12
[9] = biological target: HIV-1 B.JRFL gp120 Env (HIV-1 B.JRFL); experiment: blocking assay on JRFL gp120, competitor sCD4
[10] = biological target: HIV-1 AE.A244 gp120 envelope glycoprotein (HIV-1 AE.A244); experiment: blocking assay on A244 gp120, competitor sCD4

## CH58 (antibody)
[1]
  % increase in binding with gp120 pre-incubated with CH54, against gp120 with murine 16H3 mAb: 14%
  % increase in binding with gp120 pre-incubated with CH57, against gp120 with murine 16H3 mAb: 59%
  % increase in binding with gp120 pre-incubated with CH90, against gp120 with murine 16H3 mAb: 12%
[2]
  % enhancement of CH58 binding in the presence of CH90 F(ab): < 10%
[3]
  % enhancement of CH58 binding in the presence of CH90 F(ab): < 10%
[4]
  Kd: 1 nM
  koff: 0.00023 s⁻¹
  kon: 226000 M⁻¹ s⁻¹
[5]
  % Max Killing, mAb alone (Luciferase ADCC): 18.8%
  ADCC EC (3 hr Luciferase ADCC): 9.68 µg/mL
  EC, mAb alone (Luciferase ADCC): 9.13 µg/mL
  PC75, mAb alone (Luciferase ADCC): 31.4 µg/mL
[6]
  % increase in frequency of infected cells recognized by CH58 and in MFI in the presence of A32: < 45%
  % increase of CH58 binding in the presence of CH54: > 20%
  % increase of CH58 binding in the presence of CH57: > 25%
  % increase of CH58 binding in the presence of CH90: > 35%
[7]
  % increase in the frequency of cells recognized by CH58 in the presence of A32, against CH58 alone: > 40%
  % increase in the frequency of cells recognized by CH58 in the presence of CH57, against CH58 alone: > 40%
  % increase in the frequency of cells recognized by CH58 in the presence of CH90, against CH58 alone: > 40%

## VRC-CH31 (antibody)
[8]
  % blocking of b12 binding: 70%
[9]
  % blocking of sCD4 binding: 67%
[10]
  % blocking of sCD4 binding: 97%

## A32 Fab
[5]
  inhibition of the ADCC activity mediated by 19/20 non-V3 mAbs (ADCC-CM235 assay): 73 to 100%

## A32 (antibody)
[4]
  Kd: 0.7 nM
  koff: 0.00015 s⁻¹
  kon: 223000 M⁻¹ s⁻¹
[5]
  ADCC EC (3 hr Luciferase ADCC): 0.003 µg/mL
  maximum % GzB activity (ADCC-CM235 assay): 16%
[8]
  % blocking of b12 binding: 23%
[10]
  % blocking of sCD4 binding: 29%
